Literature values in publication PMC3749945.

Molecular target: Cdc42 (Homo sapiens) (UniProt P60953)
Sequence of UniProt P60953 (P60953 1-188): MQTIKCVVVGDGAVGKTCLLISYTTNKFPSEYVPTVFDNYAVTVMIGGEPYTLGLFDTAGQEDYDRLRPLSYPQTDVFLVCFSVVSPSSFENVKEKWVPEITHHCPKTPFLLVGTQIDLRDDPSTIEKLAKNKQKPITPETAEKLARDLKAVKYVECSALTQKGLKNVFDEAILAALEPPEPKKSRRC

WASP (from UniProt P42768)
Kd: 74 nM
